The values below come from patent US20200121803A1 (published 2020).

B1: CD98 (CL-huAb110)-CZ (antibody, human IgG1, kappa, L234A L235A, V domains shown)
VH: EVQLVQSGAEVKKPGASVKVSCKASGFTFSDYTMAWVRQAPGQGLEWVATIIYDARGTYYRDAVKGRFTITRDNSTSTLYLELSSLRSEDTAVYYCARQSDDTYYYWGYFDYWGQGTMVTVSS
VL: DIVMTQTPLSLPVTPGEPASINCKSSQSLLFSGNQKNYLAWYLQKPGQSPQLLIYWASTRQSGVPDRFSGSGSGTDFTLKISRVEAEDVGIYYCQQYYSSPYTFGQGTKLEIKR
modifications: synthon CZ on reduced interchain cysteines (sites not given)
B2: CD98 (CL-huAb108)-AAA (antibody, human IgG1, kappa, L234A L235A, V domains shown)
VH: EVQLVQSGAEVKKPGASVKVSCKASGFTFSDYTMAWVRQAPGQGLEWVATIIYSGRGTYYRDAVKGRFTITRDNSTSTLYLELSSLRSEDTAVYYCARQSDDTYYYWGYFDYWGQGTMVTVSS
VL: DIVMTQTPLSLPVTPGEPASINCKSSQSLLFSGNQKNYLAWYLQKPGQSPQLLIYWASTRQSGVPDRFSGSGSGTDFTLKISRVEAEDVGIYYCQQYYDVPYTFGQGTKLEIKR
modifications: synthon AAA on reduced interchain cysteines (sites not given)
B3: CD98 (CL-huAb102)-YY (antibody, human IgG1, kappa, L234A L235A, V domains shown)
VH: EVQLVESGGGLVQPGGSLRLSCATSGFTFIDYYMSWVRQAPGKGLEWLGFIRNKANRYTTEYSASVKGRFTISRDNSKSILYLQMNSLKTEDTAVYYCTRDRPAWFVYWGQGTLVTVSS
VL: DIVMTQTPLSLPVTPGEPASISCKSSQSLLYSSNQKNYLAWYLQKPGQSPQLLIYWASTRESGVPDRFSGSGSGTDFTLKISRVEAEDVGVYYCQQYYSYPYTFGGGTKVEIKR
modifications: synthon YY on reduced interchain cysteines (sites not given)
B4: CD98 (CL-huAb104)-AAA (antibody, human IgG1, kappa, L234A L235A, V domains shown)
VH: EVQLVESGGGLVQPGGSLRLSCATSGFTFIDYYMSWVRQAPGKGLEWLGFIRNKAYGYTTEYSASVKGRFTISRDNSKSILYLQMNSLKTEDTAVYYCTRDRPAWFVYWGQGTLVTVSS
VL: DIVMTQTPLSLPVTPGEPASISCKSSQSLLYSSNQKNYLAWYLQKPGQSPQLLIYWASTRESGVPDRFSGSGSGTDFTLKISRVEAEDVGVYYCQQYYSYPYTFGGGTKVEIKR
modifications: synthon AAA on reduced interchain cysteines (sites not given)
B5: CD98 (CL-huAb104)-TX (antibody, human IgG1, kappa, L234A L235A, V domains shown)
VH: EVQLVESGGGLVQPGGSLRLSCATSGFTFIDYYMSWVRQAPGKGLEWLGFIRNKAYGYTTEYSASVKGRFTISRDNSKSILYLQMNSLKTEDTAVYYCTRDRPAWFVYWGQGTLVTVSS
VL: DIVMTQTPLSLPVTPGEPASISCKSSQSLLYSSNQKNYLAWYLQKPGQSPQLLIYWASTRESGVPDRFSGSGSGTDFTLKISRVEAEDVGVYYCQQYYSYPYTFGGGTKVEIKR
modifications: synthon TX on reduced interchain cysteines (sites not given)
B6: CD98 (CL-huAb108)-TX (antibody, human IgG1, kappa, L234A L235A, V domains shown)
VH: EVQLVQSGAEVKKPGASVKVSCKASGFTFSDYTMAWVRQAPGQGLEWVATIIYSGRGTYYRDAVKGRFTITRDNSTSTLYLELSSLRSEDTAVYYCARQSDDTYYYWGYFDYWGQGTMVTVSS
VL: DIVMTQTPLSLPVTPGEPASINCKSSQSLLFSGNQKNYLAWYLQKPGQSPQLLIYWASTRQSGVPDRFSGSGSGTDFTLKISRVEAEDVGIYYCQQYYDVPYTFGQGTKLEIKR
modifications: synthon TX on reduced interchain cysteines (sites not given)
B7: CD98 (CL-huAb110)-TV (antibody, human IgG1, kappa, L234A L235A, V domains shown)
VH: EVQLVQSGAEVKKPGASVKVSCKASGFTFSDYTMAWVRQAPGQGLEWVATIIYDARGTYYRDAVKGRFTITRDNSTSTLYLELSSLRSEDTAVYYCARQSDDTYYYWGYFDYWGQGTMVTVSS
VL: DIVMTQTPLSLPVTPGEPASINCKSSQSLLFSGNQKNYLAWYLQKPGQSPQLLIYWASTRQSGVPDRFSGSGSGTDFTLKISRVEAEDVGIYYCQQYYSSPYTFGQGTKLEIKR
modifications: synthon TV on reduced interchain cysteines (sites not given)
B8: CD98 (CL-huAb104)-YY (antibody, human IgG1, kappa, L234A L235A, V domains shown)
VH: EVQLVESGGGLVQPGGSLRLSCATSGFTFIDYYMSWVRQAPGKGLEWLGFIRNKAYGYTTEYSASVKGRFTISRDNSKSILYLQMNSLKTEDTAVYYCTRDRPAWFVYWGQGTLVTVSS
VL: DIVMTQTPLSLPVTPGEPASISCKSSQSLLYSSNQKNYLAWYLQKPGQSPQLLIYWASTRESGVPDRFSGSGSGTDFTLKISRVEAEDVGVYYCQQYYSYPYTFGGGTKVEIKR
modifications: synthon YY on reduced interchain cysteines (sites not given)
B9: CD98 (CL-huAb102)-AAA (antibody, human IgG1, kappa, L234A L235A, V domains shown)
VH: EVQLVESGGGLVQPGGSLRLSCATSGFTFIDYYMSWVRQAPGKGLEWLGFIRNKANRYTTEYSASVKGRFTISRDNSKSILYLQMNSLKTEDTAVYYCTRDRPAWFVYWGQGTLVTVSS
VL: DIVMTQTPLSLPVTPGEPASISCKSSQSLLYSSNQKNYLAWYLQKPGQSPQLLIYWASTRESGVPDRFSGSGSGTDFTLKISRVEAEDVGVYYCQQYYSYPYTFGGGTKVEIKR
modifications: synthon AAA on reduced interchain cysteines (sites not given)
B10: CD98 (CL-huAb104)-TV (antibody, human IgG1, kappa, L234A L235A, V domains shown)
VH: EVQLVESGGGLVQPGGSLRLSCATSGFTFIDYYMSWVRQAPGKGLEWLGFIRNKAYGYTTEYSASVKGRFTISRDNSKSILYLQMNSLKTEDTAVYYCTRDRPAWFVYWGQGTLVTVSS
VL: DIVMTQTPLSLPVTPGEPASISCKSSQSLLYSSNQKNYLAWYLQKPGQSPQLLIYWASTRESGVPDRFSGSGSGTDFTLKISRVEAEDVGVYYCQQYYSYPYTFGGGTKVEIKR
modifications: synthon TV on reduced interchain cysteines (sites not given)
B11: CD98 (CL-huAb102)-TV (antibody, human IgG1, kappa, L234A L235A, V domains shown)
VH: EVQLVESGGGLVQPGGSLRLSCATSGFTFIDYYMSWVRQAPGKGLEWLGFIRNKANRYTTEYSASVKGRFTISRDNSKSILYLQMNSLKTEDTAVYYCTRDRPAWFVYWGQGTLVTVSS
VL: DIVMTQTPLSLPVTPGEPASISCKSSQSLLYSSNQKNYLAWYLQKPGQSPQLLIYWASTRESGVPDRFSGSGSGTDFTLKISRVEAEDVGVYYCQQYYSYPYTFGGGTKVEIKR
modifications: synthon TV on reduced interchain cysteines (sites not given)
B12: CD98 (CL-huAb108)-TV (antibody, human IgG1, kappa, L234A L235A, V domains shown)
VH: EVQLVQSGAEVKKPGASVKVSCKASGFTFSDYTMAWVRQAPGQGLEWVATIIYSGRGTYYRDAVKGRFTITRDNSTSTLYLELSSLRSEDTAVYYCARQSDDTYYYWGYFDYWGQGTMVTVSS
VL: DIVMTQTPLSLPVTPGEPASINCKSSQSLLFSGNQKNYLAWYLQKPGQSPQLLIYWASTRQSGVPDRFSGSGSGTDFTLKISRVEAEDVGIYYCQQYYDVPYTFGQGTKLEIKR
modifications: synthon TV on reduced interchain cysteines (sites not given)
B13: CD98 (CL-huAb102)-TX (antibody, human IgG1, kappa, L234A L235A, V domains shown)
VH: EVQLVESGGGLVQPGGSLRLSCATSGFTFIDYYMSWVRQAPGKGLEWLGFIRNKANRYTTEYSASVKGRFTISRDNSKSILYLQMNSLKTEDTAVYYCTRDRPAWFVYWGQGTLVTVSS
VL: DIVMTQTPLSLPVTPGEPASISCKSSQSLLYSSNQKNYLAWYLQKPGQSPQLLIYWASTRESGVPDRFSGSGSGTDFTLKISRVEAEDVGVYYCQQYYSYPYTFGGGTKVEIKR
modifications: synthon TX on reduced interchain cysteines (sites not given)
B14: CD98 (CL-huAb108)-YY (antibody, human IgG1, kappa, L234A L235A, V domains shown)
VH: EVQLVQSGAEVKKPGASVKVSCKASGFTFSDYTMAWVRQAPGQGLEWVATIIYSGRGTYYRDAVKGRFTITRDNSTSTLYLELSSLRSEDTAVYYCARQSDDTYYYWGYFDYWGQGTMVTVSS
VL: DIVMTQTPLSLPVTPGEPASINCKSSQSLLFSGNQKNYLAWYLQKPGQSPQLLIYWASTRQSGVPDRFSGSGSGTDFTLKISRVEAEDVGIYYCQQYYDVPYTFGQGTKLEIKR
modifications: synthon YY on reduced interchain cysteines (sites not given)
B15: CD98 (CL-huAb110)-AAA (antibody, human IgG1, kappa, L234A L235A, V domains shown)
VH: EVQLVQSGAEVKKPGASVKVSCKASGFTFSDYTMAWVRQAPGQGLEWVATIIYDARGTYYRDAVKGRFTITRDNSTSTLYLELSSLRSEDTAVYYCARQSDDTYYYWGYFDYWGQGTMVTVSS
VL: DIVMTQTPLSLPVTPGEPASINCKSSQSLLFSGNQKNYLAWYLQKPGQSPQLLIYWASTRQSGVPDRFSGSGSGTDFTLKISRVEAEDVGIYYCQQYYSSPYTFGQGTKLEIKR
modifications: synthon AAA on reduced interchain cysteines (sites not given)
B16: CD98 (CL-huAb110)-TX (antibody, human IgG1, kappa, L234A L235A, V domains shown)
VH: EVQLVQSGAEVKKPGASVKVSCKASGFTFSDYTMAWVRQAPGQGLEWVATIIYDARGTYYRDAVKGRFTITRDNSTSTLYLELSSLRSEDTAVYYCARQSDDTYYYWGYFDYWGQGTMVTVSS
VL: DIVMTQTPLSLPVTPGEPASINCKSSQSLLFSGNQKNYLAWYLQKPGQSPQLLIYWASTRQSGVPDRFSGSGSGTDFTLKISRVEAEDVGIYYCQQYYSSPYTFGQGTKLEIKR
modifications: synthon TX on reduced interchain cysteines (sites not given)
B17: CD98 (CL-huAb110)-YY (antibody, human IgG1, kappa, L234A L235A, V domains shown)
VH: EVQLVQSGAEVKKPGASVKVSCKASGFTFSDYTMAWVRQAPGQGLEWVATIIYDARGTYYRDAVKGRFTITRDNSTSTLYLELSSLRSEDTAVYYCARQSDDTYYYWGYFDYWGQGTMVTVSS
VL: DIVMTQTPLSLPVTPGEPASINCKSSQSLLFSGNQKNYLAWYLQKPGQSPQLLIYWASTRQSGVPDRFSGSGSGTDFTLKISRVEAEDVGIYYCQQYYSSPYTFGQGTKLEIKR
modifications: synthon YY on reduced interchain cysteines (sites not given)

The assay addresses T1, human CD98, endogenously expressed on Molt-4 human acute lymphoblastic leukemia cells (human).
T1 chain: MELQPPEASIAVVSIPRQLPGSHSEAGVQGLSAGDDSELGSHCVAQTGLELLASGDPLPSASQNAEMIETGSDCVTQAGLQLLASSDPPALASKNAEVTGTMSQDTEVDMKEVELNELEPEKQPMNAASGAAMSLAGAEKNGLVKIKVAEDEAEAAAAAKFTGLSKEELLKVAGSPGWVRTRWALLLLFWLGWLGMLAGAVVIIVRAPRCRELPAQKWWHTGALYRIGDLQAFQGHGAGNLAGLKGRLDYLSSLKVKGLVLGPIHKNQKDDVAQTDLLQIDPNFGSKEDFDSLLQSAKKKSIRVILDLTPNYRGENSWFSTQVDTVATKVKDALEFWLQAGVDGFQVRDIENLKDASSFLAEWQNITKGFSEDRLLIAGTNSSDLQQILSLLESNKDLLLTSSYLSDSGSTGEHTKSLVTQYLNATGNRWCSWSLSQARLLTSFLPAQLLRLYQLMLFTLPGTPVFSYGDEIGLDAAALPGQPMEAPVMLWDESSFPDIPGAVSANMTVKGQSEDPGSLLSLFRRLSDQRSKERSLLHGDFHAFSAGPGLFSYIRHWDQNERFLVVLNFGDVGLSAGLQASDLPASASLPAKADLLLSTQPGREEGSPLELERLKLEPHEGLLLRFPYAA
Kind of assay: cell-based or functional assay.
In the case of B1, the “% Cell Viability at 50 nM” value was found to be 0.8% and the “Molt4 IC50” value worked out at 0.064 nM.

For the molecule B2, the “% Cell Viability at 50 nM” value worked out at 2.9% and the “Molt4 IC50” value stood at 0.18 nM.

For the molecule B3, the “% Cell Viability at 50 nM” value amounted to 3.1% and the “Molt4 IC50” value was determined as 0.05 nM.

In the case of B4, the “% Cell Viability at 50 nM” value was 2.2% and the “Molt4 IC50” value was determined as 0.04 nM.

As to B5, the “% Cell Viability at 50 nM” value came to 4.3% and the “Molt4 IC50” value turned out to be 0.06 nM.

As to B6, the “% Cell Viability at 50 nM” value came out at 3% and the “Molt4 IC50” value is 0.15 nM.

In the case of B7, the “% Cell Viability at 50 nM” value stood at 1% and the “Molt4 IC50” value worked out at 0.09 nM.

Take B8: the “% Cell Viability at 50 nM” value is 2.7% and the “Molt4 IC50” value worked out at 0.03 nM.

As for B9, the “% Cell Viability at 50 nM” value came to 2.4% and the “Molt4 IC50” value stood at 0.05 nM.

B10: the “% Cell Viability at 50 nM” value worked out at 1.4% and the “Molt4 IC50” value amounted to 0.03 nM.

Regarding B11, the “% Cell Viability at 50 nM” value came out at 1.5% and the “Molt4 IC50” value stood at 0.02 nM.

As to B12, the “% Cell Viability at 50 nM” value amounted to 1.1% and the “Molt4 IC50” value is 0.08 nM.

Regarding B13, the “% Cell Viability at 50 nM” value stood at 2.8% and the “Molt4 IC50” value is 0.05 nM.

Take B14: the “% Cell Viability at 50 nM” value came to 2.9% and the “Molt4 IC50” value is 0.14 nM.

For B15, the “% Cell Viability at 50 nM” value worked out at 1.9% and the “Molt4 IC50” value was determined as 0.16 nM.

For the molecule B16, the “% Cell Viability at 50 nM” value is 2.5% and the “Molt4 IC50” value came to 0.14 nM.

As for B17, the “% Cell Viability at 50 nM” value turned out to be 1.9% and the “Molt4 IC50” value came out at 0.13 nM.
